Common to all, as to test: polyreactivity ELISA, antigen coated, 10 ug/mL binder
The target in experiment [1] is keyhole limpet hemocyanin.
Experiment [2] concerns the target human serum albumin (human) (UniProt P02768).
Experiment [3] addresses insulin.

On to Bococizumab (antibody), for which the absorbance at 450 nm normalized against the no-antigen control in experiment [1] is 38.8; in experiment [2], 16.6; in experiment [3], 21.4.
